The values below come from US6987008B1, “Variant nucleoside-5′-phosphate producing enzyme” (priority 1999, dated 2006).

Holding throughout (format): biochemical, Escherichia blattae
Holding throughout (conditions): other: transphosphorylation, 100 mM sodium pyrophosphate, 10–100 mM inosine, pH 4, 30° C., 10 min, cell free extract, Hanes-Woolf

Substrate in series [1]: OC[C@H]1O[C@@H](n2cnc3c(O)ncnc32)[C@H](O)[C@@H]1O
Nature of the series: Km for inosine, transphosphorylation by S72E/G74D/I153T mutant EB-AP. The procedure: (§1) In order to construct a mutant EB-AP for expression in Escherichia coli JM109, a plasmid pEPI340 containing a gene for G74D/I153T mutant EB-AP was used as a template for site-directed mutagenesis utilizing PCR. The nucleotide sequences of these plasmids pEPI305 and pEPI340 are disclosed in Japanese Patent Laid-open (Kokai) No. 10-201481/1998, paragraph (0143), Table 12. […]
(§2) Then, the Km value for inosine in the transphosphorylation reaction by each 3-residue replaced mutant EB-AP was measured under the following conditions. […] After 200 μl of 1 N hydrochloric acid was added to stop the reaction, the precipitates were removed by centrifugation, and the produced 5′-inosinic acid was quantified. The Km value was calculated by the Hanes-Woolf plotting.
(§3) 5′-Inosinic acid was analyzed by high performance liquid chromatography (HPLC) under the following conditions. • Column: Cosmosil 5C18-AR (4.6×150 mm), produced by Nakarai Tesque • Mobile phase: 5 mM potassium phosphate buffer (pH 2.8)/methanol=95/5 • Flow rate: 1.0 ml/min • Temperature: room temperature • Detection: UV 245 nm

Substrate in series [2]: OC[C@H]1O[C@@H](n2cnc3c(O)ncnc32)[C@H](O)[C@@H]1O
Put plainly: Km for inosine, transphosphorylation by A72F/10-residue replaced mutant EB-AP. The procedure:
Then, the Km value for inosine in the transphosphorylation reaction by each 3-residue replaced mutant EB-AP was measured under the following conditions. A reaction mixture (1 ml) containing 100 mM sodium pyrophosphate, 100 mM acetate buffer (pH 4.0), 10–100 mM inosine and 100 μl of the cell free extract was incubated at pH 4 and 30° C. for 10 minutes. After 200 μl of 1 N hydrochloric acid was added to stop the reaction, the precipitates were removed by centrifugation, and the produced 5′-inosinic acid was quantified. The Km value was calculated by the Hanes-Woolf plotting.
as §3
The S72F mutation that decreased the Km value in the highest degree and the S72E mutation that enhanced the activity in the highest degree in Example 12 were introduced into the 10-residue replaced mutant EB-AP. Since Ser72 was replaced with Ala in the 10-residue replaced mutant EB-AP, the A72F and A72E mutations were actually introduced. […] Furthermore, transphosphorylation activity and reaction rate constant were measured by the method described in Example 12. […]

Substrate in series [3]: OC[C@H]1O[C@@H](n2cnc3c(O)ncnc32)[C@H](O)[C@@H]1O
Put plainly: Km for inosine, transphosphorylation by S72T/G74D/I153T mutant EB-AP. The procedure:
as §1, §2, §3

Substrate in series [4]: OC[C@H]1O[C@@H](n2cnc3c(O)ncnc32)[C@H](O)[C@@H]1O
Nature of the series: Km for inosine, transphosphorylation by S72Y/G74D/I153T mutant EB-AP. On the procedure: as §1, §2, §3

Substrate in series [5]: OC[C@H]1O[C@@H](n2cnc3c(O)ncnc32)[C@H](O)[C@@H]1O
Put plainly: Km for inosine, transphosphorylation by S72M/G74D/I153T mutant EB-AP. On the procedure: as §1, §2, §3

Substrate in series [6]: OC[C@H]1O[C@@H](n2cnc3c(O)ncnc32)[C@H](O)[C@@H]1O
Nature of the series: Km for inosine, transphosphorylation by S72F/G74D/I153T mutant EB-AP. On the procedure:
as §1, §2, §3

Substrate in series [7]: OC[C@H]1O[C@@H](n2cnc3c(O)ncnc32)[C@H](O)[C@@H]1O
Nature of the series: Km for inosine, transphosphorylation by S72D/G74D/I153T mutant EB-AP. The procedure:
as §1, §2, §3

Substrate in series [8]: OC[C@H]1O[C@@H](n2cnc3c(O)ncnc32)[C@H](O)[C@@H]1O
Put plainly: Km for inosine, transphosphorylation by 10-residue replaced mutant EB-AP.

Substrate in series [9]: OC[C@H]1O[C@@H](n2cnc3c(O)ncnc32)[C@H](O)[C@@H]1O
Put plainly: Km for inosine, transphosphorylation by G74D/I153T mutant EB-AP.

Substrate in series [10]: OC[C@H]1O[C@@H](n2cnc3c(O)ncnc32)[C@H](O)[C@@H]1O
Put plainly: Km for inosine, transphosphorylation by S72V/G74D/I153T mutant EB-AP. On the procedure: as §1, §2, §3

Substrate in series [11]: OC[C@H]1O[C@@H](n2cnc3c(O)ncnc32)[C@H](O)[C@@H]1O
Put plainly: Km for inosine, transphosphorylation by S72W/G74D/I153T mutant EB-AP. The procedure: as §1, §2, §3

B1: Escherichia blattae acid phosphatase (EB-AP, SEQ ID NO: 2 / 124) mutant S72E/G74D/I153T (Shimwellia blattae; G92D/I171T/S90E) (protein)
chain: LVATGNDTTTKPDLYYLKNSEAINSLALLPPPPAVGSIAFLNDQAMYEQGRLLRNTERGKLAAEDANLSEGDVANAFSGAFGSPITEKDAPALHKLLTNMIEDAGDLATRSAKDHYMRIRPFAFYGVSTCNTTEQDKLSKNGSYPSGHTSTGWATALVLAEINPQRQNEILKRGYELGQSRVICGYHWQSDVDAARVVGSAVVATLHTNPAFQQQLQKAKAEFAQHQKK
In general, Km refers to the concentration of substrate that gives half-maximal velocity. For B1, the Km in series [1] was 40 mM.

B2: Escherichia blattae acid phosphatase (EB-AP, SEQ ID NO: 2 / 124) mutant A72F/10-residue replaced (L63Q/A65Q/E66A/N69D/S71A/S72A/G74D/T135K/E136D/I153T with … (protein)
chain: LVATGNDTTTKPDLYYLKNSEAINSLALLPPPPAVGSIAFLNDQAMYEQGRLLRNTERGKQAQADADLAFGDVANAFSGAFGSPITEKDAPALHKLLTNMIEDAGDLATRSAKDHYMRIRPFAFYGVSTCNTKDQDKLSKNGSYPSGHTSTGWATALVLAEINPQRQNEILKRGYELGQSRVICGYHWQSDVDAARVVGSAVVATLHTNPAFQQQLQKAKAEFAQHQKK
Consider B2, for which the Km in series [2] worked out at 9 mM.

B3: Escherichia blattae acid phosphatase (EB-AP, SEQ ID NO: 2 / 124) mutant S72T/G74D/I153T (Shimwellia blattae; G92D/I171T/S90T) (protein)
chain: LVATGNDTTTKPDLYYLKNSEAINSLALLPPPPAVGSIAFLNDQAMYEQGRLLRNTERGKLAAEDANLSTGDVANAFSGAFGSPITEKDAPALHKLLTNMIEDAGDLATRSAKDHYMRIRPFAFYGVSTCNTTEQDKLSKNGSYPSGHTSTGWATALVLAEINPQRQNEILKRGYELGQSRVICGYHWQSDVDAARVVGSAVVATLHTNPAFQQQLQKAKAEFAQHQKK
With B3, the Km in series [3] amounted to 50 mM.

B4: Escherichia blattae acid phosphatase (EB-AP, SEQ ID NO: 2 / 124) mutant S72Y/G74D/I153T (Shimwellia blattae; G92D/I171T/S90Y) (protein)
chain: LVATGNDTTTKPDLYYLKNSEAINSLALLPPPPAVGSIAFLNDQAMYEQGRLLRNTERGKLAAEDANLSYGDVANAFSGAFGSPITEKDAPALHKLLTNMIEDAGDLATRSAKDHYMRIRPFAFYGVSTCNTTEQDKLSKNGSYPSGHTSTGWATALVLAEINPQRQNEILKRGYELGQSRVICGYHWQSDVDAARVVGSAVVATLHTNPAFQQQLQKAKAEFAQHQKK
Take B4: the Michaelis constant (Km) in series [4] was 25 mM.

B5: Escherichia blattae acid phosphatase (EB-AP, SEQ ID NO: 2 / 124) mutant S72M/G74D/I153T (Shimwellia blattae; G92D/I171T/S90M) (protein)
chain: LVATGNDTTTKPDLYYLKNSEAINSLALLPPPPAVGSIAFLNDQAMYEQGRLLRNTERGKLAAEDANLSMGDVANAFSGAFGSPITEKDAPALHKLLTNMIEDAGDLATRSAKDHYMRIRPFAFYGVSTCNTTEQDKLSKNGSYPSGHTSTGWATALVLAEINPQRQNEILKRGYELGQSRVICGYHWQSDVDAARVVGSAVVATLHTNPAFQQQLQKAKAEFAQHQKK
As to B5, the Km in [5] was determined as 46 mM.

B6: Escherichia blattae acid phosphatase (EB-AP, SEQ ID NO: 2 / 124) mutant S72F/G74D/I153T (Shimwellia blattae; G92D/I171T/S90F) (protein)
chain: LVATGNDTTTKPDLYYLKNSEAINSLALLPPPPAVGSIAFLNDQAMYEQGRLLRNTERGKLAAEDANLSFGDVANAFSGAFGSPITEKDAPALHKLLTNMIEDAGDLATRSAKDHYMRIRPFAFYGVSTCNTTEQDKLSKNGSYPSGHTSTGWATALVLAEINPQRQNEILKRGYELGQSRVICGYHWQSDVDAARVVGSAVVATLHTNPAFQQQLQKAKAEFAQHQKK
For B6, the Km in series [6] was 20 mM.

B7: Escherichia blattae acid phosphatase (EB-AP, SEQ ID NO: 2 / 124) mutant S72D/G74D/I153T (Shimwellia blattae; G92D/I171T/S90D) (protein)
chain: LVATGNDTTTKPDLYYLKNSEAINSLALLPPPPAVGSIAFLNDQAMYEQGRLLRNTERGKLAAEDANLSDGDVANAFSGAFGSPITEKDAPALHKLLTNMIEDAGDLATRSAKDHYMRIRPFAFYGVSTCNTTEQDKLSKNGSYPSGHTSTGWATALVLAEINPQRQNEILKRGYELGQSRVICGYHWQSDVDAARVVGSAVVATLHTNPAFQQQLQKAKAEFAQHQKK
In the case of B7, the Km in [7] is 33 mM.

B8: Escherichia blattae acid phosphatase (EB-AP, SEQ ID NO: 2 / 124) 10-residue replaced mutant L63Q/A65Q/E66A/N69D/S71A/S72A/G74D/T135K/E136D/I153T (Shimwellia … (protein)
chain: LVATGNDTTTKPDLYYLKNSEAINSLALLPPPPAVGSIAFLNDQAMYEQGRLLRNTERGKQAQADADLAAGDVANAFSGAFGSPITEKDAPALHKLLTNMIEDAGDLATRSAKDHYMRIRPFAFYGVSTCNTKDQDKLSKNGSYPSGHTSTGWATALVLAEINPQRQNEILKRGYELGQSRVICGYHWQSDVDAARVVGSAVVATLHTNPAFQQQLQKAKAEFAQHQKK
Consider B8, for which, in series [8], the Km is recorded as 40 mM.

B9: Escherichia blattae acid phosphatase (EB-AP, SEQ ID NO: 2 / 124) mutant G74D/I153T (Shimwellia blattae; G92D/I171T) (protein)
chain: LVATGNDTTTKPDLYYLKNSEAINSLALLPPPPAVGSIAFLNDQAMYEQGRLLRNTERGKLAAEDANLSSGDVANAFSGAFGSPITEKDAPALHKLLTNMIEDAGDLATRSAKDHYMRIRPFAFYGVSTCNTTEQDKLSKNGSYPSGHTSTGWATALVLAEINPQRQNEILKRGYELGQSRVICGYHWQSDVDAARVVGSAVVATLHTNPAFQQQLQKAKAEFAQHQKK
In the case of B9, in [9], the Km is 100 mM.

B10: Escherichia blattae acid phosphatase (EB-AP, SEQ ID NO: 2 / 124) mutant S72V/G74D/I153T (Shimwellia blattae; G92D/I171T/S90V) (protein)
chain: LVATGNDTTTKPDLYYLKNSEAINSLALLPPPPAVGSIAFLNDQAMYEQGRLLRNTERGKLAAEDANLSVGDVANAFSGAFGSPITEKDAPALHKLLTNMIEDAGDLATRSAKDHYMRIRPFAFYGVSTCNTTEQDKLSKNGSYPSGHTSTGWATALVLAEINPQRQNEILKRGYELGQSRVICGYHWQSDVDAARVVGSAVVATLHTNPAFQQQLQKAKAEFAQHQKK
For B10, the Km in [10] is 40 mM.

B11: Escherichia blattae acid phosphatase (EB-AP, SEQ ID NO: 2 / 124) mutant S72W/G74D/I153T (Shimwellia blattae; G92D/I171T/S90W) (protein)
chain: LVATGNDTTTKPDLYYLKNSEAINSLALLPPPPAVGSIAFLNDQAMYEQGRLLRNTERGKLAAEDANLSWGDVANAFSGAFGSPITEKDAPALHKLLTNMIEDAGDLATRSAKDHYMRIRPFAFYGVSTCNTTEQDKLSKNGSYPSGHTSTGWATALVLAEINPQRQNEILKRGYELGQSRVICGYHWQSDVDAARVVGSAVVATLHTNPAFQQQLQKAKAEFAQHQKK
As to B11, in series [11], the Km was determined as 30 mM.
